Source: patent publication US20230174672A1 (VEGA THERAPEUTICS, published 2023)
Numbering of substitutions follows the chain as printed. Each block holds one binder with its values, some of them ahead of it.

Experiments:
human Protein S [1] = target: T1, human Protein S (human, UniProt P07225 42-676); assay: BLI, Octet; antibody on anti-human Fc capture probes, Protein S 7.81-500 nM, 4 mM calcium chloride
T1 construct: also called ProS; ProS1
T1 sequence: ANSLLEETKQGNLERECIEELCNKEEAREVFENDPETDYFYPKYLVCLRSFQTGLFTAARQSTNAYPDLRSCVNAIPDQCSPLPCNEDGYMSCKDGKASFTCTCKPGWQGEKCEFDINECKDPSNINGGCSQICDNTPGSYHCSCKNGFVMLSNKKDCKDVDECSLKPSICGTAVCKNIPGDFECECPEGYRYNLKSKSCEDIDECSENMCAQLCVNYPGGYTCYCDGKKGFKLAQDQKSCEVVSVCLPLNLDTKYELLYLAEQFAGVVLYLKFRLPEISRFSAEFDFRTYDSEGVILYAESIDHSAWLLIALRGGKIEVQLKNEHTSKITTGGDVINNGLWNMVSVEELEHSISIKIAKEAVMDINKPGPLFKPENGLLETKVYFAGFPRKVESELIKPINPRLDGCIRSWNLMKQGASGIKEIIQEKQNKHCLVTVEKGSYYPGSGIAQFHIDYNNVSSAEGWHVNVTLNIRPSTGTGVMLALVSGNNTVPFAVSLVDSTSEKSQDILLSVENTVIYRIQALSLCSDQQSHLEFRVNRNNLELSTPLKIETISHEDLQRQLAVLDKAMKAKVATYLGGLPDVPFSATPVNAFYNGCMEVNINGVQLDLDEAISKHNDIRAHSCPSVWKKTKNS
Protocol: (§1) Binding affinities of the Protein S antibodies provided herein were also further characterized using the Octet System (Sartorius). The binding of each antibody to both human and cynomolgus monkey (“cyno”) Protein S was determined. The human Fc antibodies were immobilized onto anti-human Fc capture probes by placing the probes into 10 µg/ml antibody solution in 10 mg/ml bovine serum albumin, 20 mM Tris pH 7.0, 150 mM NaCl, and 4 mM calcium chloride. […] Next, the probes were placed into buffer and the dissociation rates were measured.

[2] = target: T2, cynomolgus monkey Protein S (cynomolgus monkey); assay: as above
T2 construct: also called cyno Protein S
Protocol: as §1

human Protein S [3] = target: T1, human Protein S; assay: SPR, Biacore X100; antibody captured on anti-human IgG (Fc), purified Protein S 2-128 nM as analyte, HBS-EP + 5 mM CaCl2, 1:1 model
Protocol: Binding interaction analysis was obtained by Surface Plasmon Resonance in a Biacore X100 instrument. The human anti-IgG (Fc) antibody was immobilized to the carboxymethylated dextran membrane on the sensor chip surface (CM5) via the free amine method for a contact time of 420 seconds. Human anti-IgG antibody at 25 µg/mL in 0.15 M NaCl was immobilized to 9,785 RU in 10 mM sodium acetate pH 5.0. Each tested monoclonal antibody was captured at a fixed concentration (0.25 µg/mL) with immobilized human anti-IgG antibody.
The following experimental conditions were used: purified Protein S was injected at concentrations: 2-128 nM, 1:2-fold dilution. Dilution and running buffer were as follows: Hbs-EP + 5 mM CaCl₂. Regeneration was obtained by 3 M MgCl₂. Binding constants (ka, kd, and KD) were determined using the Biacore X100 evaluation software, assuming a 1:1 interaction of Protein S and the tested monoclonal antibody under investigation.

human Protein S [4] = target: T1, human Protein S; assay: ELISA, plate coated with human Protein S, 1 µg/ml antibody, 1 mM EDTA
Protocol: (§2) Calcium dependence of binding was determined using an ELISA based method. Briefly, high binding ELISA plates were coated with human Protein S. Then, buffer containing 1 µg/ml of antibody was applied to the well with either buffer containing 1 mM EDTA or 1 mM calcium chloride. If the level of binding of Protein S was reduced ([…] of the absorbance observed in the presence of calcium) when EDTA was added, it was concluded that the binding was calcium-dependent.

human Protein S [5] = target: T1, human Protein S; assay: ELISA, plate coated with human Protein S, 1 µg/ml antibody, 1 mM calcium chloride
Protocol: as §2

[6] = target: T3, recombinant heavy chain Protein S (amino acids 42-296) (human, UniProt P07225 42-296); assay: ELISA on plate-coated recombinant Protein S heavy chain (aa 42-296), 1 mM calcium chloride
T3 construct: Expressed and purified from HEK293 cells; No tags are stated; also called heavy chain of Protein S; Protein S heavy chain
T3 sequence: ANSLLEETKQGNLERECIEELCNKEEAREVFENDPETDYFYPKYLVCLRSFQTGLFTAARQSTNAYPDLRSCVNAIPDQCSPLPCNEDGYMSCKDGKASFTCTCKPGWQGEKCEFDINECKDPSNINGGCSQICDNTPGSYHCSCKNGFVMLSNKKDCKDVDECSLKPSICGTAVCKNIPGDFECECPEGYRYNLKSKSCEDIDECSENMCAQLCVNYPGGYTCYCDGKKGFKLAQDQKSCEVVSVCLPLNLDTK
Protocol: (§3) Binding to the heavy chain of Protein S was determined using an ELISA based method. Briefly, high binding ELISA plates were coated with recombinant heavy chain Protein S expressed and purified from HEK293 cells. The “heavy chain” of Protein S represents a fragment of Protein S spanning amino acids 42-296. The coated plate was blocked with 1% casein solution. Then, buffer containing 1 µg/ml of antibody to be tested was applied to the well with buffer containing 1 mM calcium chloride.

[7] = target: T3, recombinant heavy chain Protein S …; assay: ELISA, plate coated with recombinant Protein S heavy chain (aa 42-296), 1 µg/ml antibody, 1 mM calcium chloride
Protocol: as §3

Protein S-C4BP complex = target: T4, Protein S-C4BP complex (human, UniProt P04003 49-597; P20851 18-252); assay: Octet BLI, antibody captured on anti-human Fc probes; a dash indicates that the binding did not occur
T4 construct: Bought C4BP preparation that contains Protein S precomplexed to human C4BP; also called ProS-C4BP Complex; C4BP-Protein S complex
T4 sequence 1: T1 sequence
T4 sequence 2: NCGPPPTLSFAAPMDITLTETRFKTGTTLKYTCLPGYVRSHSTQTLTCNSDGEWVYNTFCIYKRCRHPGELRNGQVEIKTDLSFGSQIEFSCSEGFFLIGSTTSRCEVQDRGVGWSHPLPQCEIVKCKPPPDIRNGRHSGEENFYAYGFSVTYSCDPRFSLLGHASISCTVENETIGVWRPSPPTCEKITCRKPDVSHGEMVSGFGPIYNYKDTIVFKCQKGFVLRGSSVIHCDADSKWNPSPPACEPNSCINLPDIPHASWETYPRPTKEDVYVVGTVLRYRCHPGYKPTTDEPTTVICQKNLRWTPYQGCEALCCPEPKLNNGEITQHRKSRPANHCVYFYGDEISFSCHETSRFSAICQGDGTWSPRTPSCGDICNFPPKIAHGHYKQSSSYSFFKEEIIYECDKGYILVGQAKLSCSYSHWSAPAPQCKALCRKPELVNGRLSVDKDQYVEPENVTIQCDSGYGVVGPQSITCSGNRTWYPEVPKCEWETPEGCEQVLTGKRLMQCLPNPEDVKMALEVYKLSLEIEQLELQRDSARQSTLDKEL
T4 sequence 3: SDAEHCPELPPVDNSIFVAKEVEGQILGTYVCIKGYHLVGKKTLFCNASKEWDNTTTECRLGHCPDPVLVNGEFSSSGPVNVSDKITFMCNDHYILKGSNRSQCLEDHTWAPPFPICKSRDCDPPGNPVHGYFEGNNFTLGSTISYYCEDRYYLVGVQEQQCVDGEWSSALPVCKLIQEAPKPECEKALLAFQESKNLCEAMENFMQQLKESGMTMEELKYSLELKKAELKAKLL
Protocol: The Octet assay was used to determine the capability of the Protein S antibodies provided herein to bind to Protein S either alone, or when complexed to C4BP.
Using the Octet System (Sartorius), the binding of each antibody to both Protein S and Protein S in complex with C4BP was determined. It had previously been determined that the C4BP preparation from Complement Technologies contains Protein S precomplexed to human C4BP. […] Then the bound antibodies were placed into solutions containing either 75 µg/ml Protein S or 100 µg/ml C4BP (C4BP-Protein S complex).

- Binding to Protein S in EDTA (OD) (human Protein S [4]): 0.07 OD
- Binding to Protein S in CaCl2 (OD) (human Protein S [5]): 0.2 OD
- binding result [6]: no binding
- Binding to heavy chain (OD) [7]: 0.06 OD
B2: Antibody 22 (antibody, V domains shown)
VH: EVQLLESGGGLVQPGGSLRLSCAASRFSFSSYAMSWVRQAPGKGLEWVSAISDSGSNTYYADSVKGLFTISRDNSKNTLYLQMNSLRAEDTAVYYCAKNYESGGYYTFFDYWGQGTLVTVST
VL: EIVMTQSPATLSVFPGERATLSCRASQSVRSNLAWHQQKLGQAPRLLLYGASTRATGIPARFSGSGSGTEFTLAISSLQSEDFAVYYCQQYNSWPFTFGGGTKVGIK
notes: Human variable region with a rat Fc domain; also called Protein S Antibody with Rat Fc; parental rat antibody of Antibody 10

- Kd (human Protein S [1]): 0.466 nM
- koff (human Protein S [1]): 4.58e-05 s⁻¹
- kon (human Protein S [1]): 98500 M⁻¹ s⁻¹
- Kd [2]: 0.349 nM
- koff [2]: 3.15e-05 s⁻¹
- kon [2]: 90300 M⁻¹ s⁻¹
B5: Antibody 26 (antibody, human IgG4, V domains shown)
VH: EVQVVESGGGLVQPGGSLRLSCAASGFTLNSFWMSWVRQAPGKGLEWVANIKEDGSEKYYVDSVKGRFTISRDNAKNSLYLQMNGLRAEDTALYYCARETDILTAYYSDYYSYYGMDVWGQGTTVTVSA
VL: DIQMTQSPSSLSASVRDRVTINCRASQSIRSYLNWYQQKPGKAPKLLIYAASSLQGGVPSRFSGSGSGTDFTLTISSLQPEDFATYYCQQSYSTPRTFGQGTKVEIK
notes: also called Protein S Antibody with Human Fc; Combination 16
- binding result (Protein S-C4BP complex): no binding (tested: 100 µg/ml C4BP (C4BP-Protein S complex))

- Binding to Protein S in EDTA (OD) (human Protein S [4]): 0.33 OD
- Binding to Protein S in CaCl2 (OD) (human Protein S [5]): 0.82 OD
- binding result [6]: no binding
- Binding to heavy chain (OD) [7]: 0.1 OD
B6: Antibody 32 (antibody, V domains shown)
VH: B5 VH
VL: B5 VL
notes: Human variable region with a rat Fc domain; also called Protein S Antibody with Rat Fc; parental rat antibody of Antibody 26

The remaining lines, values behind:

B1: Antibody 5 (antibody, V domains shown)
VH: QVQLVQSGAEVKKPGASVKVSCKASGYTFTSYDINWVRQATGQGLEWMGWVNPNSDNIGYAQKFQGRVTMTRNTSISTAYMELSSLRSEDSAVYYCVRGAAAAWDAFAIWGQGTMVTVSS
VL: B2 VL with F14S, R30G, H36Y, L40P, L48I, I58G, A74T, S93N, F96L, G105E
notes: also called Protein S Antibody with Human Fc; Combination 8
- Kd (human Protein S [1]): 7.8 nM
- koff (human Protein S [1]): 0.000493 s⁻¹
- kon (human Protein S [1]): 63300 M⁻¹ s⁻¹
- Kd [2]: 4.19 nM
- koff [2]: 0.000283 s⁻¹
- kon [2]: 67500 M⁻¹ s⁻¹
- Kd (human Protein S [3]): 28 nM
- koff (human Protein S [3]): 0.00227 s⁻¹
- kon (human Protein S [3]): 81200 M⁻¹ s⁻¹

B3: Antibody 10 (antibody, human IgG4, V domains shown)
VH: B2 VH
VL: B2 VL
notes: also called Protein S Antibody with Human Fc; Combination 9
- Kd (human Protein S [1]): 16.8 nM
- koff (human Protein S [1]): 0.00213 s⁻¹
- kon (human Protein S [1]): 127000 M⁻¹ s⁻¹
- Kd [2]: 12.3 nM
- koff [2]: 0.00132 s⁻¹
- kon [2]: 107000 M⁻¹ s⁻¹
- binding result (Protein S-C4BP complex): no binding (tested: 100 µg/ml C4BP (C4BP-Protein S complex))
- Kd (human Protein S [3]): 31 nM
- koff (human Protein S [3]): 0.00514 s⁻¹
- kon (human Protein S [3]): 167000 M⁻¹ s⁻¹

B4: Antibody 17 (antibody, V domains shown)
VH: B1 VH
VL: B2 VL with F14S, R30G, H36Y, L40P, L48I, I58G, A74T, S93N, F96L, G105E
notes: Human variable region with a rat Fc domain; also called Protein S Antibody with Rat Fc; parental rat antibody of Antibody 5
- Binding to Protein S in EDTA (OD) (human Protein S [4]): 0.39 OD
- Binding to Protein S in CaCl2 (OD) (human Protein S [5]): 0.54 OD
- binding result [6]: no binding
- Binding to heavy chain (OD) [7]: 0.07 OD
